Patent US20110009311A1 (US Dept. of Health and Human Services, published 2011)
Where no end group is shown, it is not given here.

B1: peptide 683 (peptide)
peptide: QGVLQNVR
B2: peptide 704 (peptide)
peptide: Ac-QGVLQNVRF
B3: peptide 702 (peptide)
peptide: FQGVLQNVKFVF
B4: peptide 697 (peptide)
peptide: AQGVLQNVRFVF
B5: peptide 719 (peptide)
peptide: FQGVLQNLRFVF
B6: peptide 705 (peptide)
peptide: FQGVLQSVRFVF
B7: thrombospondin-1 (TSP1), calcium replete, purified from human platelets (ligand)
chain: not shown
B8: peptide 718 (peptide)
peptide: FQGVLQDVRFVF
B9: peptide 682 (peptide)
peptide: FQGVLQNVRF
B10: peptide 717 (peptide)
peptide: FQGVLQQVRFVF
B11: peptide 687 (peptide)
peptide: FQGVLANVRFVF
B12: peptide 698 (peptide)
peptide: FQGVLNNVRFVF
B13: TSP1 peptide 678 (peptide)
peptide: FQGVLQNVRFVF
B14: peptide 690 (peptide)
peptide: FQGVLQNVAFVF
notes: also called control peptide 690
B15: peptide 684 (peptide)
peptide: LQNVRFVF
B16: peptide 696 (peptide)
peptide: FAGVLQNVRFVF
B17: peptide 688 (peptide)
peptide: VLQNVRFVF
B18: laminin peptide 679 (peptide)
peptide: FRGCVRNLRLSR
B19: MBP-invasin fusion protein (ligand)
chain: AVIGDGAPANGKTAITVEFTVADFEGKPLAGQEVVITTNNGALPNKITEKTDANGVARIALTNTTDGVTVVTAEVEGQRQSVDTHFVKGTIAADKSTLAAVPTSIIADGLMASTITLELKDTYGDPQAGANVAFDTTLGNMGVITDHNDGTYSAPLTSTTLGVATVTVKVDGAAFSVPSVTVNFTADPIPDAGRSSFTVSTPDILADGTMSSTLSFVPVDKNGHFISGMQGLSFTQNGVPVSISPITEQPDSYTATVVGNTAGDVTITPQVDTLILSTLQKKISLFPVPTLTGILVNGQNFATDKGFPKTIFKNATFQLQMDNDVANNTQYEWSSSFTPNVSVNDQGQVTITYQTYSEVAVTAKSKKFPSYSVSYRFYPNRWIYDGGTSLVSSLEASRQCQGSDMSAVLESSRATNGTRAPDGTLWGEWGSLTAYSSDWQSGEYWVKKTSTDFETMNMDTGALVQGPAYLAFPLCALAI
B20: murine laminin-1 peptide GD6 (peptide)
peptide: KQNCLSSRASFRGCVRNLRLSR
B21: peptide 694 (peptide)
peptide: FQGVLQNVHFVF
B22: peptide 681 (peptide)
peptide: Ac-LQNVRF-NH2
B23: peptide 693 (peptide)
peptide: FQGVLQNVRFVA
B24: peptide 692 (peptide)
peptide: FQGVLQNVRAVF
B25: peptide 685 (peptide)
peptide: QGVLQNVRFVF
B26: TSP1 peptide 701 (peptide)
peptide: TPGQVRTLWHDP
notes: also called (part of C6)
B27: peptide 695 (peptide)
peptide: FQGVAQNVRFVF

Legend:
[1] = molecular target: T1, α3β1 integrin (endogenous on human cells: MDA-MB-435 breast carcinoma, HUVEC, HDME, OH-1 SCLC) (human, UniProt P26006 33-1051; P05556 21-798); experiment: soluble peptide, inhibition of MDA-MB-435 cell adhesion to immobilized peptide 678
T1 construct: whole, on cells; never purified, always the integrin on whole cells in adhesion, spreading or proliferation assays; also called alpha3 beta1 integrin

[2] = molecular target: T1, α3β1 integrin (endogenous on human …); experiment: cell-based or functional assay
[3] = molecular target: T1, α3β1 integrin (endogenous on human …); experiment: cell-based or functional assay; remark: listed apart in the source
[4] = molecular target: T1, α3β1 integrin (endogenous on human …); experiment: cell-based or functional assay; remark: listed apart in the source
[5] = molecular target: T1, α3β1 integrin (endogenous on human …); experiment: direct MDA-MB-435 cell adhesion to adsorbed peptide (FIG. 8)
[6] = molecular target: T1, α3β1 integrin (endogenous on human …); experiment: MDA-MB-435 cell adhesion and inhibition of adhesion (FIG. 3A and results not shown)

T1 sequence (P26006 33-1051, chain 1 of 2): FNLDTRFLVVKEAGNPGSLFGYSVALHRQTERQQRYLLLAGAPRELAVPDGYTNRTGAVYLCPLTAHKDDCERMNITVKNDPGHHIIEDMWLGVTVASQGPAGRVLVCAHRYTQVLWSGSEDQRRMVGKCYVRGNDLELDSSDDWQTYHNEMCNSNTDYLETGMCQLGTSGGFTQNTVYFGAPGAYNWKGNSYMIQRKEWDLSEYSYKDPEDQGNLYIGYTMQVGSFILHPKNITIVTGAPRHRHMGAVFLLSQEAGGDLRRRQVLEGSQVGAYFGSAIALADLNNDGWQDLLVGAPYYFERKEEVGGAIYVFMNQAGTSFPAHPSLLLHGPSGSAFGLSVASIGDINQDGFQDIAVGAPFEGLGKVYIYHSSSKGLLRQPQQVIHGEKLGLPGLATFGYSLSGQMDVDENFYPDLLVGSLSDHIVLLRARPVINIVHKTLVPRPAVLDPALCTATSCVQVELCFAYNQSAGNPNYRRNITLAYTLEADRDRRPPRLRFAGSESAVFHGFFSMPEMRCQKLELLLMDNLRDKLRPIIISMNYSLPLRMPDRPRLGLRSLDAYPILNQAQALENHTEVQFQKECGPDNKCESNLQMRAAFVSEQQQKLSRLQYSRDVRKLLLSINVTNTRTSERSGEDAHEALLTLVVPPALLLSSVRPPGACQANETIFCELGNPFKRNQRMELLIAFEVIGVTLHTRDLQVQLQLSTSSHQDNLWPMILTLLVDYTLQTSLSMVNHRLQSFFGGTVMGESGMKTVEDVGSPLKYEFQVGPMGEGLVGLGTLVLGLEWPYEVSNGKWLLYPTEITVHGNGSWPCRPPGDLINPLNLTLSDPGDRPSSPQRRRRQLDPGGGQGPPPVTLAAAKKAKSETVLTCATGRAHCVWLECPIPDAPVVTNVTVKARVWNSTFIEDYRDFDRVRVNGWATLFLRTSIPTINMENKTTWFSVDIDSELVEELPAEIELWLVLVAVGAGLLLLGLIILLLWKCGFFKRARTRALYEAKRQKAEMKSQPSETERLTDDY
T1 sequence (P05556 21-798, chain 2 of 2): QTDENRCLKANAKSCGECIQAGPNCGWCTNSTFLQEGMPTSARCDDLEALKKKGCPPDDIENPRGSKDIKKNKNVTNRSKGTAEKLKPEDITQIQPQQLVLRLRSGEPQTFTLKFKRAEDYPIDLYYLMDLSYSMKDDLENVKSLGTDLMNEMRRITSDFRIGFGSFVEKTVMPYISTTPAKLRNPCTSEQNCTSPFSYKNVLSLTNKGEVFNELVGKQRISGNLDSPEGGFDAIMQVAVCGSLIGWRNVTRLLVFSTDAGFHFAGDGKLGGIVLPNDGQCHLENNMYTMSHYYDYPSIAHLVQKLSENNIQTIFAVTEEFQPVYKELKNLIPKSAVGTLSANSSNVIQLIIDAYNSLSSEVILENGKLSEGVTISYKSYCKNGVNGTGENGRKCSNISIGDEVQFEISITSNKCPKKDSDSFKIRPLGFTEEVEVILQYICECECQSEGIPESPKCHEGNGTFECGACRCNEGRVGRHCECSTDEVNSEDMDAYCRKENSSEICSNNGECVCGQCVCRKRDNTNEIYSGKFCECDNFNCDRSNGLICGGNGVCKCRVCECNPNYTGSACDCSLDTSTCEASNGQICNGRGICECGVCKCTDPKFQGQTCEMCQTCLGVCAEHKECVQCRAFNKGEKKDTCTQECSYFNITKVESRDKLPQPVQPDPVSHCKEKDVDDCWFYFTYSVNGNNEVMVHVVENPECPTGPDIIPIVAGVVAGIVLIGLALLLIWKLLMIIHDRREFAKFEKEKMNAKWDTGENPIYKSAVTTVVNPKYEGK

Binder | IC50, inhibition of MDA-MB-435 cell adhesion to immobilized peptide 678 (microscopic adhesion assay) [2] [µM] | IC50, inhibition of MDA-MB-435 cell adhesion to immobilized peptide 678 (hexosaminidase method) [2] [µM] | IC50 (µM), inhibition of MDA-MB-435 cell adhesion to immobilized peptide 678 [3] [µM] | further results
B1 | > 300 |  |  | binding result [1]: no binding (tested: >300 µM)
B2 | 15 | ~100 |  | 
B3 | 6 | 25 | 6 | 
B4 | 5 |  | 5 | 
B5 |  | 16 |  | 
B6 |  | 15 |  | 
B7 |  |  |  | IC50, inhibition of OH-1 SCLC cell proliferation by soluble protein [4]: 0.04 µM
B8 |  | 12 |  | 
B9 | 6 |  |  | 
B10 |  | 30 |  | 
B11 | 3 |  | 3 | 
B12 | 3 |  |  | 
B13 | 3.5 | 15 | 3.5 | IC50, inhibition of OH-1 SCLC cell proliferation by soluble peptide [4]: 6 µM
B14 | > 300 |  | > 300 | binding result [5]: no binding (tested: adsorbed at 10 µM)
B15 | 300 |  |  | 
B16 | 1.8 | 12 | 1.8 | 
B17 | > 100 |  |  | 
B18 |  | 700 |  | 
B19 |  |  |  | IC50, inhibition of OH-1 SCLC cell proliferation by soluble protein [4]: 0.08 µM
B20 |  |  |  | IC50, inhibition of MDA-MB-435 cell adhesion to peptide 678, GD6 or TSP1 by the soluble laminin peptide (data not shown) [4]: 700 µM
B21 | 54 |  | 54 | 
B22 | 500 |  |  | 
B23 | 27 |  | 27 | 
B24 | 18 |  | 18 | 
B25 | 24 |  |  | 
B26 | > 300 |  |  | binding result [6]: no binding
B27 | 5 |  | 5 | 
